Earlier results as cited in paper PMC10065799, “High-throughput profiling of sequence recognition by tyrosine kinases and SH2 domains using bacterial peptide display” (eLife, 2023).

Target: PD1 phosphosite peptide (Homo sapiens) (UniProt Q15116)

SHP2 N-SH2 (from UniProt Q06124)
Kd: 2000 nM
